Laboratory results as given in article doi:10.1101/2023.07.18.549520.

Columns and labels:
[1] = target: type I gelatin (heat-denatured acid-soluble type I atelocollagen from bovine hides) (bovine) (UniProt P02453); assay: ELISA
[2] = target: soluble type I collagen (acid-soluble type I atelocollagen from bovine hides) (bovine) (UniProt P02453); assay: ELISA
[3] = target: V-domain of Scl2.3 (Streptococcus pyogenes); assay: SDS-PAGE

type I gelatin (heat-denatured acid-soluble type I atelocollagen from bovine hides) (bovine), sequence (P02453 162-1217, chain 1 of 2): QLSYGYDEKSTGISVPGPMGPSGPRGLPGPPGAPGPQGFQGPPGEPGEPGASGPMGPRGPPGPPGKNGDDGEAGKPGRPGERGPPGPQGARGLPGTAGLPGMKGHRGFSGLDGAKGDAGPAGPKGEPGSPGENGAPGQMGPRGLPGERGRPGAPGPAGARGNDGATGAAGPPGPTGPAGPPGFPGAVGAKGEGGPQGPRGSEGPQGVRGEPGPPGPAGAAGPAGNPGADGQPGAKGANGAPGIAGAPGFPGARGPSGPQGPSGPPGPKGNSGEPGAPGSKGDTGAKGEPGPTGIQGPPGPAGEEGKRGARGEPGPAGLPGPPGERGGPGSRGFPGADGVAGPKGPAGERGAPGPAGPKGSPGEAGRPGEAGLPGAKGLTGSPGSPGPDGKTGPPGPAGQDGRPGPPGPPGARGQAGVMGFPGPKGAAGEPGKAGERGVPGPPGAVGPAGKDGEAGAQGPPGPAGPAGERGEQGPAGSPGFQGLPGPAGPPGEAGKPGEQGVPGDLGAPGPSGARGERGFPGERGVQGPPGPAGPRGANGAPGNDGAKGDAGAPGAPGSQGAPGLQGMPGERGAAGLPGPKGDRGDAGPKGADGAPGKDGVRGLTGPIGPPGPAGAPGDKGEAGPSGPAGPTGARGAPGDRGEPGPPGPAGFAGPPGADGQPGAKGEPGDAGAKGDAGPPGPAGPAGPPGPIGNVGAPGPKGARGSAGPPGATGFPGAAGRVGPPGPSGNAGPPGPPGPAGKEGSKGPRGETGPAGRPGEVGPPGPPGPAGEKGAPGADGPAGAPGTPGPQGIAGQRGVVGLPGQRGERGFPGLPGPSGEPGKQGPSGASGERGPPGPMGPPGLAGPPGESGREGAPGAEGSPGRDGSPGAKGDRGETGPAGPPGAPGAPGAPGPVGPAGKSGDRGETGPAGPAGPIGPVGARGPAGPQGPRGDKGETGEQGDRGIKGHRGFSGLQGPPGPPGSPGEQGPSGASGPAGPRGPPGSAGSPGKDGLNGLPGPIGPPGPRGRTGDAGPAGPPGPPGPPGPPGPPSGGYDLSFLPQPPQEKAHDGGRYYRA
type I gelatin (heat-denatured acid-soluble type I atelocollagen from bovine hides) (bovine), sequence (P02465 80-1117, chain 2 of 2, further chain): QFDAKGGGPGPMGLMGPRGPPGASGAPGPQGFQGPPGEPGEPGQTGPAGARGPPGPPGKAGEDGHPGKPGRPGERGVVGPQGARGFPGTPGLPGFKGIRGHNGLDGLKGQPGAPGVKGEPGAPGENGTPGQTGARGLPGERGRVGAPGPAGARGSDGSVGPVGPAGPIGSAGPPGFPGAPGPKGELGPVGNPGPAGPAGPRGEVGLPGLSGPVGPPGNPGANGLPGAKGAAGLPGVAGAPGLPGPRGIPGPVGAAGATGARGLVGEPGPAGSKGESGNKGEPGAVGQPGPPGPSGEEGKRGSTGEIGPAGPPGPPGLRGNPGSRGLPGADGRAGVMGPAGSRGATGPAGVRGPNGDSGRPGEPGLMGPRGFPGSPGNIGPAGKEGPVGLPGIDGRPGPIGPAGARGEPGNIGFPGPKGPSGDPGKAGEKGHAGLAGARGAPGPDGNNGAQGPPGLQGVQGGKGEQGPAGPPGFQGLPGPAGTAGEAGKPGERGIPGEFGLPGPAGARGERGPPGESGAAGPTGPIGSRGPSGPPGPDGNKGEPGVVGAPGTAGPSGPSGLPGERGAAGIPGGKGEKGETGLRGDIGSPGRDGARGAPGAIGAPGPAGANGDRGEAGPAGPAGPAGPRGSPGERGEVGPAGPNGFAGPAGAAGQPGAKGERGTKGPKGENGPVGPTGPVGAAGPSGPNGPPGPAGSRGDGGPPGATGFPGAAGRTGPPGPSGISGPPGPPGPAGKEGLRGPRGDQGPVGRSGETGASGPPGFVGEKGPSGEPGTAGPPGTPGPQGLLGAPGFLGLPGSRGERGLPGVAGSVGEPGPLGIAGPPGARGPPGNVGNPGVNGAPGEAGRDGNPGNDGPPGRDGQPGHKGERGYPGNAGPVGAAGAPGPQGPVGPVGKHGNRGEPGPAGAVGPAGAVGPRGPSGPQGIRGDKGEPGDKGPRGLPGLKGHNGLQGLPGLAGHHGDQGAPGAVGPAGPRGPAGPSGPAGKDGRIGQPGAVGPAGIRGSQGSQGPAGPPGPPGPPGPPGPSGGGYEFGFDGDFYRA
soluble type I collagen (acid-soluble type I atelocollagen from bovine hides) (bovine), sequence (P02453 162-1217, chain 1 of 2): as the sequence (P02453 162-1217, chain 1 of 2) above
soluble type I collagen (acid-soluble type I atelocollagen from bovine hides) (bovine), sequence (P02465 80-1117, chain 2 of 2, further chain): as the sequence (P02465 80-1117, chain 2 of 2, further chain) above

Substance	Kd [1] [µM]	Kd [2] [µM]	fold increase in affinity against ColQ1-CU G472V (WT) [2] [fold]	also measured
ColQ1-CU G472V (domain or fragment)	1.6	1.6	–	–
ColQ1-CU G472V Y270A (domain or fragment)	–	–	8	–
ColQ1-CU G472V N226A (domain or fragment)	–	–	–	fold drop in binding affinity against ColQ1-CU G472V (WT) [1]: 90 fold; fold reduction in binding affinity against ColQ1-CU G472V (WT) [2]: > 90 fold
ColQ1-CU G472V R169A (domain or fragment)	–	–	9	–
ColG-CU E524A (Y119-G790) (domain or fragment)	0.08	0.37	–	–
ColG-PD E524A (D398-G790) (domain or fragment)	243	497	–	–
ColQ1-CU G472V F176A (domain or fragment)	–	–	20	–
V-domain of Scl2.3 (domain or fragment)	–	–	–	stoichiometry N [3]: 3
ColQ1-CU G472V Y173A (domain or fragment)	–	–	–	fold drop in binding affinity against ColQ1-CU G472V (WT) [1]: 15 fold
